T1: integrin αvβ3 (Homo sapiens, UniProt P06756)
T1 chain 1: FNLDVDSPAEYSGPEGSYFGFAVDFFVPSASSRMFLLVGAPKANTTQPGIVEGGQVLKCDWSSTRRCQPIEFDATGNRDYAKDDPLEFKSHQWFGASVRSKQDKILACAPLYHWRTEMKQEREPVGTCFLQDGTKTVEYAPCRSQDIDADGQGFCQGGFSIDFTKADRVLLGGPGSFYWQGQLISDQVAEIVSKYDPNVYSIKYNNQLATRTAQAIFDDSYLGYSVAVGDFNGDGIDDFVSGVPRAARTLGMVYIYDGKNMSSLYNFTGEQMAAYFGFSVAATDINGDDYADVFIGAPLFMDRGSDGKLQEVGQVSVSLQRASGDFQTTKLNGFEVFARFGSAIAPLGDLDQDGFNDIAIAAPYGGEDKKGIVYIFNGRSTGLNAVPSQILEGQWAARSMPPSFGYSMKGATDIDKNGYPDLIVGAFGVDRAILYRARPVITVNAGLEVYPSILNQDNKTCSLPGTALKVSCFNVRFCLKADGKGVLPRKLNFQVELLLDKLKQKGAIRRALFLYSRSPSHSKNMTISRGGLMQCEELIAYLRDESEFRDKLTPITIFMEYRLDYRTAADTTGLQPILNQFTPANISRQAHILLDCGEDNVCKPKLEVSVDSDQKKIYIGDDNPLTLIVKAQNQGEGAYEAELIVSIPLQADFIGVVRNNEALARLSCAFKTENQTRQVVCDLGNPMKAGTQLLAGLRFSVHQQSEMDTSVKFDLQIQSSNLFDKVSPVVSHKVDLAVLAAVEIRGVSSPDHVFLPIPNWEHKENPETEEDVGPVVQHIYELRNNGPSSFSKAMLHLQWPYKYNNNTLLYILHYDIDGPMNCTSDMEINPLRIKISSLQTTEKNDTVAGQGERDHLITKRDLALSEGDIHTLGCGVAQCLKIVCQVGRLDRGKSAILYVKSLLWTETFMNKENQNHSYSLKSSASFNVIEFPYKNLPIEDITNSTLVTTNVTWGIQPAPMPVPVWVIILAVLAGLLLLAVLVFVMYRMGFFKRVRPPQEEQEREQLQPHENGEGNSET
T1 chain 2: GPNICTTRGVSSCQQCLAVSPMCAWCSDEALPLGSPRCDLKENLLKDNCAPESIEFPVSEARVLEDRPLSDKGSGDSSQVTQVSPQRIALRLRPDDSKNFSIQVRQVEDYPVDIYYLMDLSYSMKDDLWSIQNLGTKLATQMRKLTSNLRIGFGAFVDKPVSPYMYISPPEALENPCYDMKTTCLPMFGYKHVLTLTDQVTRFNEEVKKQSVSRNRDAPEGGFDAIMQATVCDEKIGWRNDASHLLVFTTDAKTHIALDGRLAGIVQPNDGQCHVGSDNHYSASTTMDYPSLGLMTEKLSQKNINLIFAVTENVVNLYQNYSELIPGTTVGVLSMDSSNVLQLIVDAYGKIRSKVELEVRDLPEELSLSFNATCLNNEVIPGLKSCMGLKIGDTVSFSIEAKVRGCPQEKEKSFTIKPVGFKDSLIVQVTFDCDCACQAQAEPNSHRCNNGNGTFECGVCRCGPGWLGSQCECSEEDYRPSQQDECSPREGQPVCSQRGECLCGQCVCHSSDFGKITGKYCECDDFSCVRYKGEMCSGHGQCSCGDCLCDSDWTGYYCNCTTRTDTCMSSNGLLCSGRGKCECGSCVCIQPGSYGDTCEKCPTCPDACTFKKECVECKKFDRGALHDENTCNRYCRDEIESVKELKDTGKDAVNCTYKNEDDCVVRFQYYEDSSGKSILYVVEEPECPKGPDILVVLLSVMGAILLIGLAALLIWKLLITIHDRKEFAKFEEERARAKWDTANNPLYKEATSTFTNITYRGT

T2: integrin αvβ5 (Homo sapiens, UniProt P06756)
T2 chain 1: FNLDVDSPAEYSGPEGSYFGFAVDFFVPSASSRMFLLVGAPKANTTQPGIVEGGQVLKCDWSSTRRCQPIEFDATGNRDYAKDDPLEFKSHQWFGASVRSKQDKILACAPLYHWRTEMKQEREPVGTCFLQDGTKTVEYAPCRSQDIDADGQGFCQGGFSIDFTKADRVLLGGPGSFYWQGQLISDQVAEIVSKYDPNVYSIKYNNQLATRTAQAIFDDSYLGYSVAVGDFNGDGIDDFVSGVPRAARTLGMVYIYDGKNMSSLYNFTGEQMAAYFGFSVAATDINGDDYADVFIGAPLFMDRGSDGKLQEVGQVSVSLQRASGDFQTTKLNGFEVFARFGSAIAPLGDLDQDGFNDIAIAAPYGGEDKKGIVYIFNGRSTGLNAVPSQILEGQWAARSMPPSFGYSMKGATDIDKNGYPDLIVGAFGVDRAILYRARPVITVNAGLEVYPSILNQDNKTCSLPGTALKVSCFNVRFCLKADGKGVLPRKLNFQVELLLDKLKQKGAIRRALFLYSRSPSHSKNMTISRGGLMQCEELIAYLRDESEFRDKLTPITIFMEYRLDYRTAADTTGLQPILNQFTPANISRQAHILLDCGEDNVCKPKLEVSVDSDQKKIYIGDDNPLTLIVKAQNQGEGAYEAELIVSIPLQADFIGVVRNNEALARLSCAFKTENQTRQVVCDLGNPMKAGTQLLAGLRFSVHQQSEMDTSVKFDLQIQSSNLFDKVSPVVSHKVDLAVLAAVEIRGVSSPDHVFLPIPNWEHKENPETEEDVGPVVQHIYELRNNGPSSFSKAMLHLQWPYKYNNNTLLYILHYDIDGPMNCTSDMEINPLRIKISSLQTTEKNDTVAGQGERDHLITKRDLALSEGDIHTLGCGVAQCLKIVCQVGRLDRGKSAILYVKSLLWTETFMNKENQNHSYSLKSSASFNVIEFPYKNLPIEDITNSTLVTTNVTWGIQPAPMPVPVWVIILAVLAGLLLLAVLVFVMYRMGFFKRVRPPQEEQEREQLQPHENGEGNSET
T2 chain 2: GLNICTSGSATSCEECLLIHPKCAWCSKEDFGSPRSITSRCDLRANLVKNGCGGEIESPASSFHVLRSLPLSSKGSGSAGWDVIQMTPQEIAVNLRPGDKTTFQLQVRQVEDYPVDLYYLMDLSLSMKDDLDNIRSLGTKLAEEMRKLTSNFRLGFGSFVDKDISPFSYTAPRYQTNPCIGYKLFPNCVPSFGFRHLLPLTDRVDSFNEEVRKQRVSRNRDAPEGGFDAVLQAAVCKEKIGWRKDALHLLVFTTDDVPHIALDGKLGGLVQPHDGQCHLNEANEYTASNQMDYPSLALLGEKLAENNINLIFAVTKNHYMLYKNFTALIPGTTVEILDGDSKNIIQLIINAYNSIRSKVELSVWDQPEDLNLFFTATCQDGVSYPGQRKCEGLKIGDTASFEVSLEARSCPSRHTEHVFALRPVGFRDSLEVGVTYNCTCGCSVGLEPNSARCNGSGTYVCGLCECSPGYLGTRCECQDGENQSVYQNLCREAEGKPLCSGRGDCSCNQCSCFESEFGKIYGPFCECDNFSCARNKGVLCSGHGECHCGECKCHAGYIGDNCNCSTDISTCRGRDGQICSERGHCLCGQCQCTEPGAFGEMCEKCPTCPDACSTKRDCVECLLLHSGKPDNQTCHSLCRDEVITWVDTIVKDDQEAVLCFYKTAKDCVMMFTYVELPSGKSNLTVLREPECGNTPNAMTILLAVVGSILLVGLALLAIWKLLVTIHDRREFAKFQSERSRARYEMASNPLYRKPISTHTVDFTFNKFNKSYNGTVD


Assays:
Assay in all cases: ELISA
integrin αvβ3 = biological target: T1, integrin αvβ3
DR5 = DR5 (Homo sapiens, UniProt O14763)
integrin αvβ5 = biological target: T2, integrin αvβ5

| Binder | Kd (integrin αvβ3) [nM] | Kd (DR5) [nM] | Kd (integrin αvβ5) [nM] |
| --- | --- | --- | --- |
| DR5-B-iRGD 114-281 (protein) VRERGPQRVAAHITGTRGRSNTLSSPNSKNEKALGRKINSWESSRSGHSFLSNLHLRNGELVIHEKGFYYIYSQTNFKFREEIKENTKNDKQMVQYIYKYTSYPDPILLMKSARNSCWSKDAEYGLYSIYQGGIFELKENDRIFVSVTNERLLDMHHEASFFGAFLVG | 1.89 | 1.66 | 96.5 |
| DR5-B 114-281 (protein) VRERGPQRVAAHITGTRGRSNTLSSPNSKNEKALGRKINSWESSRSGHSFLSNLHLRNGELVIHEKGFYYIYSQTNFKFREEIKENTKNDKQMVQYIYKYTSYPDPILLMKSARNSCWSKDAEYGLYSIYQGGIFELKENDRIFVSVTNERLLDMHHEASFFGAFLVG |  | 1.46 |  |
